The results in this text go back to PMC10142772.

The target of this test is D. officinale MYB5 (DoMYB5), R2R3-MYB transcription factor (Dendrobium officinale).
D. officinale MYB5 (DoMYB5), R2R3-MYB transcription factor (Dendrobium officinale), sequence (main, as listed by the source): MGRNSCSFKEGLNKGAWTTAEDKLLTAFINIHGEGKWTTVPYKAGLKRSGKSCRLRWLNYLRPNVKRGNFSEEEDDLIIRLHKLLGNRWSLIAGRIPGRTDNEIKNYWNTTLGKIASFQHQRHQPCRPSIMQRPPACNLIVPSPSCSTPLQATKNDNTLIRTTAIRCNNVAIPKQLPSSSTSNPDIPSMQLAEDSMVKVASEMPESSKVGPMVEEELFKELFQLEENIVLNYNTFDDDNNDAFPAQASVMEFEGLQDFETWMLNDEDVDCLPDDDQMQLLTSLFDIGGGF

Substance “D. officinale bHLH24 (DobHLH24), bHLH transcription factor (natural protein)” gave a dual-luciferase assay in tobacco leaves: activity of the DoCHS promoter on co-expression of DoMYB5 and DobHLH24, against the control group (times higher than the control group) of 4.8; a dual-luciferase assay in tobacco leaves: activity of the DoDFR promoter on co-expression of DoMYB5 and DobHLH24, against the control group (times higher than the control group) of 2.5.
